Data on one molecule can be found in publication doi:10.1101/2024.06.06.597810 (bioRxiv, 2024).

This test addresses T1, SARS-CoV-2 spike stem helix peptide (residues 1146-1159), displayed on yeast (SARS-CoV-2).
T1 chain: DSFKEELDKYFKNH
As to the kind of experiment: flow cytometry on cells. As to conditions: partners not purified. For orientation: Flow cytometry measures light scatter and fluorescence of single cells or particles in a stream.

B1: S2P6 VH E1Q/VL E105D in scFv format (scFv, V domains shown)
VH: QVQLVQSGAEVKKPGASVKVSCKASGYTFTSQYMHWVRQAPGQGLEWIGIINPSGVHTSYAQKFQGRVTLTRDTSTSTLYMELSSLRSEDTAVYYCARGSPKGAFDYWGQGTLVTVSS
VL: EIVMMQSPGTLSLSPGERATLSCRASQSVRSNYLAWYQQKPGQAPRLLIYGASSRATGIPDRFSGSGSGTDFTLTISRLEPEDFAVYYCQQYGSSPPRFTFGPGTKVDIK
notes: not shown: HA, C-terminal, kept
Take B1: the binding result is on record as “binds”.
